In test [1] the target is T1, human 4-1BB (human, UniProt Q07011 24-186).
T1 construct: SPR (Biacore) analyte; also called hu4-1BB
The test is described as follows: SPR.

The target of test [2] is T2, mouse 4-1BB (mouse, UniProt P20334 24-187).
T2 construct: also called mu4-1BB; murine 4-1BB
T2 sequence (looked up): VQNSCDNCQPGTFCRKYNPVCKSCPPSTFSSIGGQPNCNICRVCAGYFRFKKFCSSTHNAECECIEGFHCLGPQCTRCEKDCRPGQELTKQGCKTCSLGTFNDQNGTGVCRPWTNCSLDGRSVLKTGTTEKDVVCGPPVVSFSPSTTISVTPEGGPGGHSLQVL
The test is described as follows: SPR. In general terms: SPR reads the build-up and loss of mass on a sensor chip optically.

For test [3], the target named is T3, mouse 4-1BB on HEK293 cells (mouse, UniProt P20334 24-256).
T3 construct: whole, on cells
T3 sequence (looked up): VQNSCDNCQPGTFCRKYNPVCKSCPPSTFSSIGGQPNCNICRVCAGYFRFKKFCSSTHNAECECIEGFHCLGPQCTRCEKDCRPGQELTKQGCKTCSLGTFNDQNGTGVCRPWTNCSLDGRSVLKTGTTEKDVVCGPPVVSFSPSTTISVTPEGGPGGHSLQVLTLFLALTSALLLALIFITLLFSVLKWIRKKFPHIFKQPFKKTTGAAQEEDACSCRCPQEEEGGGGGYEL
The test is described as follows: FACS, HEK293 mouse 4-1BB. The procedure:
To determine species specificity and relative binding affinities of the test antibodies, cell lines were generated to exogenously express 4-1BB on the membrane. HEK293 cells were transfected with a plasmid expressing the human, cynomolgus, or mouse 4-1BB proteins. Stable, high expressing populations were sorted on the MoFlo sorter (Beckman) and maintained in DMEM, 10% fetal bovine serum, containing 500 μg/mL G418. For the assay, cells were dissociated with trypsin, resuspended at 5×10⁶ cells/mL and transferred to the 500 μL polypropylene plate (Nunc) at 50 μL/well (250,000 cells/well). […] Cells were washed twice with 250 μL/PBS (Hyclone) per well. PE-labelled detection antibodies were added at 1:250 dilution of stock, 50 μL/well, and incubated for 20 minutes at room temperature. The following detection antibodies were used: Goat anti-Rat IgG-PE (Southern Biotech), Goat anti-Mouse IgG-PE (Southern Biotech) or Goat anti-Human IgG-PE (Southern Biotech). Cells were washed once and fixed with PBS containing 1% Formaldehyde. Plate was analyzed for fluorescence on the FACSCalibur (Becton Dickinson).
Background: In flow cytometry, cells or beads pass a laser one at a time.

The target in test [4] is T1, human 4-1BB. The test is described as follows: SPR (Biacore).
The target in test [5] is human CD40 on cells (HEK293 stable transfectants, HEK-Blue CD40 cells, human B cells, monocytic cells, … (human, UniProt P25942 21-277)). The test is described as follows: cell-based or functional assay.
human CD40 on cells (HEK293 stable transfectants, HEK-Blue CD40 cells, human B cells, monocytic cells, …, sequence (P25942 21-277 limits assumed): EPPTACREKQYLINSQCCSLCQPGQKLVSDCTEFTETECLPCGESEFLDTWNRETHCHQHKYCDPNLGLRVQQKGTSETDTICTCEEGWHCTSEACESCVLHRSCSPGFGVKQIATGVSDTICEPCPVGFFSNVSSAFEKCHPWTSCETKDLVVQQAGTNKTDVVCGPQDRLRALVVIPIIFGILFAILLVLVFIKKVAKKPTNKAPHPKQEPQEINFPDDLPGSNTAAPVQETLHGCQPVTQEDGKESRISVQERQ
Test [6] deals with T4, soluble form of the extracellular domain of human CD40 (Creative BioMart) (human, UniProt P25942 21-193).
T4 construct: Bought
T4 sequence (P25942 21-193 limits assumed): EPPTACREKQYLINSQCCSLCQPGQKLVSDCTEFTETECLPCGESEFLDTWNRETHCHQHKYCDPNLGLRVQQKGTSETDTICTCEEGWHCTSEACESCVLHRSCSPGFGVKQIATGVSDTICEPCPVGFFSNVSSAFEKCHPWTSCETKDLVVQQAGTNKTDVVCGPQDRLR
The test is described as follows: SPR.

Test [7] has as its target T5, human mesothelin (human, UniProt Q13421 296-580, limits assumed).
T5 construct: also called Human MSLN
The test is described as follows: SPR.

The target in test [8] is T6, soluble form of the extracellular domain of cynomolgus (cyno) CD40 (Creative BioMart) (cynomolgus, UniProt G7PG38 21-193).
T6 construct: extracellular domain; also called Cynomolgus CD40
The test is described as follows: SPR.

Where a chain is given by its changes, count along the chain named. In names and notes the source's numbering stands.

T5 sequence (Q13421 other isoform, or with tags, fused parts or gaps limits assumed): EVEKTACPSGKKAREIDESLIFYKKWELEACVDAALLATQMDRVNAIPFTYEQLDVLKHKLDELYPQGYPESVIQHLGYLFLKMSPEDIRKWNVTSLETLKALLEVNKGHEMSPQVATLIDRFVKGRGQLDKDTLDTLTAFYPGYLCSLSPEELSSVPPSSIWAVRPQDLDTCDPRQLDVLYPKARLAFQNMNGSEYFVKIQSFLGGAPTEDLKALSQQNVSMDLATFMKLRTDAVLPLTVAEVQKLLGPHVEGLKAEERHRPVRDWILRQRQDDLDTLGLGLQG

B1: hu106-1 (antibody, V domains shown)
VH: EVQLVQSGAEVKKPGSSVKVSCKASGYTFTSYYIYWVRQAPGQGLEWIGNIWPGNGGTFYGEKFMGRATFTADTSTSTAYMELSSLRSEDTAVYYCARRPDYSGDDYFDYWGQGTLVTVSS
VL: NVMLTQPHSVSESPGKTVTISCKLNSGNIGSYYVHWYQQRPGSSPTTMIYRDDKRPDGVPDRFSGSIDSSSNSASLTISGLKTEDEADYYCHSYDSTITPVFGGGTKLTVL
notes: human IgG1 constant regions with L234A and L235A
In test [1], B1 had a Kd of 130 nM, a koff of 0.074 s⁻¹ and a kon of 570000 M⁻¹ s⁻¹. Besides, in test [2], the Kd was 17 nM, the dissociation rate constant (koff) came out at 0.036 s⁻¹ and the kon was found to be 2.2e+06 M⁻¹ s⁻¹.

B2: hu106-1 mIgG1 (antibody, V domains shown)
VH: B1 VH
VL: B1 VL
notes: also called hu106-1 with the muIgG1 constant region
In test [3], B2 gave an EC50 of 0.69 nM. This counts as sub-nanomolar.

B3: hu106-1 T252M mIgG1 (antibody, V domains shown)
VH: B1 VH
VL: B1 VL
notes: also called hu106-1 mIgG1 T252M
In turn, B3 gave an EC50 in test [3] of 0.95 nM.

B4: TABBY3-mIgG2b (antibody, V domains shown)
VH: GVQLVESGGGLVQPGGSRKLSCAASGFTFSSFGMHWFRQAPEKGLEWVAYISSGSSTIYYADTLKGRFTISRDNPKNTLFLQMTSLRSEDTAMYYCARDWVDYWGQGTTLTVSS
VL: DIVITQDELSNPVTSGESASISCRSSKSLLYKDGKTYLNWFLQRPGQSPQLLIYLMSTRASGVSDRFTGSGSGTDFTLEISRVKAEDVGVYYCQQPVEYPYTFGGGTKLEIK
notes: mouse IgG2b
The molecule B4 gave a dissociation constant Kd in test [4] of 6.6 nM.

B5: TABBY10-mIgG1 (antibody, V domains shown)
VH: QIQLVQSGPELKKPGETVKISCKASGYTFTTYGMSWVKQAPGKGLKWMGWINTYSGVPTYADDFKGRFAFSLETSASTAYLQINNLKNEDTATYFCARGNDGNYYGWFAHWGQGTLVTVSA
VL: DIQMTQSPSSLSASLGGKVTITCKASQDIHNYISWYQHKPGKGPRLVIHYTSTLQPGIPSRFSGSGSGRDYSFSISNLEPEDIATYYCLQYDNLYTFGGGTKLEIK
notes: mouse IgG1
Regarding B5, the Kd in test [4] was found to be 3.1 nM.

B6: CF4 (bispecific antibody, human IgG1, lambda)
heavy: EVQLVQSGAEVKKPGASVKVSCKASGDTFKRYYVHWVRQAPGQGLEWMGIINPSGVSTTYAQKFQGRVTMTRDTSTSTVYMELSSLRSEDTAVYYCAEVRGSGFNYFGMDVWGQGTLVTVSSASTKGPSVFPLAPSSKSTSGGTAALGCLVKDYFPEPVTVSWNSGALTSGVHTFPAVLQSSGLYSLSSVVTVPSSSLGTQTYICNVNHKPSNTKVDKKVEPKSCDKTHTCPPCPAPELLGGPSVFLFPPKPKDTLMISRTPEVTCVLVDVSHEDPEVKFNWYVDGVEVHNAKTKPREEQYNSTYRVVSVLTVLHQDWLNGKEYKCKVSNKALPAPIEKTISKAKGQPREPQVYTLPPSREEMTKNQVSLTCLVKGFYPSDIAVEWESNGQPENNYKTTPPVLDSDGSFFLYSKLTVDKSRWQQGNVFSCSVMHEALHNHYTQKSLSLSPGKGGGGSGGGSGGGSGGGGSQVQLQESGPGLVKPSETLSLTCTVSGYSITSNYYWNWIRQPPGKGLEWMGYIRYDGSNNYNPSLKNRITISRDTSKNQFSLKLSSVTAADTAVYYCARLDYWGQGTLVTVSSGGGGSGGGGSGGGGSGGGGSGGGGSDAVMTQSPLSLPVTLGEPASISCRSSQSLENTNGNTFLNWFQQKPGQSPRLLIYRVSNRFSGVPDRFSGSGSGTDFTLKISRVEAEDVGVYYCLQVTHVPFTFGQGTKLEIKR
light: SYELTQPPSVSVSPGQTASITCSGDKLGDKYASWYQQKPGQSPVLVIYQDNRRPSGIPERFSGSNSGNTATLTISGTQAMDEADYYCQAWDSDTYVFGTGTKVTVLGQPKAAPSVTLFPPSSEELQANKATLVCLISDFYPGAVTVAWKADSSPVKAGVETTTPSKQSNNKYAASSYLSLTPEQWKSHRSYSCQVTHEGSTVEKTVAPTECS
B6: the “Max. IL-12p70, dendritic cells with cell-surface mesothelin” value (from here on “Max. IL-12p70, dendritic cells”) in test [5] turned out to be 50 pg/mL.

B7: CF9 (bispecific antibody, human IgG1, lambda)
heavy: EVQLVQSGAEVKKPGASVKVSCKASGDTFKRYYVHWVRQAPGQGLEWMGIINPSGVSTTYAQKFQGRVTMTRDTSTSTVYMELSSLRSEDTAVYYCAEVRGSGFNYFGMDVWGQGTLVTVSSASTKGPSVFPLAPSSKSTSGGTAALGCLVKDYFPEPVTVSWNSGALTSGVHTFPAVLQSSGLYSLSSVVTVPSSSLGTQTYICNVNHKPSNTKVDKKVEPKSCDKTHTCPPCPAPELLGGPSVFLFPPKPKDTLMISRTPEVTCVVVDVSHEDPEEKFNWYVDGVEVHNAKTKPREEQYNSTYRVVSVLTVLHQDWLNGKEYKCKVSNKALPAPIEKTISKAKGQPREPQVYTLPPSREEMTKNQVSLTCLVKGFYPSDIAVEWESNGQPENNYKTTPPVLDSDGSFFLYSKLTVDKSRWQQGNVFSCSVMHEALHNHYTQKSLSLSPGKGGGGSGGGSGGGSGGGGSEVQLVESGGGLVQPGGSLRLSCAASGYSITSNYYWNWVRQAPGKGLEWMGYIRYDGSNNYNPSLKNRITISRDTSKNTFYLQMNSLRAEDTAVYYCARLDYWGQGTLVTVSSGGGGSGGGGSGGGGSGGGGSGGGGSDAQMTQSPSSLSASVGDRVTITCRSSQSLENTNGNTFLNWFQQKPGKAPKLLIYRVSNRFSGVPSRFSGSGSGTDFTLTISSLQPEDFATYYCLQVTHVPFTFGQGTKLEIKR
light: B6 light
B7: the “Max. IL-12p70, dendritic cells” value in test [5] is 120 pg/mL.

B8: CF5 (bispecific antibody, human IgG1, lambda)
heavy: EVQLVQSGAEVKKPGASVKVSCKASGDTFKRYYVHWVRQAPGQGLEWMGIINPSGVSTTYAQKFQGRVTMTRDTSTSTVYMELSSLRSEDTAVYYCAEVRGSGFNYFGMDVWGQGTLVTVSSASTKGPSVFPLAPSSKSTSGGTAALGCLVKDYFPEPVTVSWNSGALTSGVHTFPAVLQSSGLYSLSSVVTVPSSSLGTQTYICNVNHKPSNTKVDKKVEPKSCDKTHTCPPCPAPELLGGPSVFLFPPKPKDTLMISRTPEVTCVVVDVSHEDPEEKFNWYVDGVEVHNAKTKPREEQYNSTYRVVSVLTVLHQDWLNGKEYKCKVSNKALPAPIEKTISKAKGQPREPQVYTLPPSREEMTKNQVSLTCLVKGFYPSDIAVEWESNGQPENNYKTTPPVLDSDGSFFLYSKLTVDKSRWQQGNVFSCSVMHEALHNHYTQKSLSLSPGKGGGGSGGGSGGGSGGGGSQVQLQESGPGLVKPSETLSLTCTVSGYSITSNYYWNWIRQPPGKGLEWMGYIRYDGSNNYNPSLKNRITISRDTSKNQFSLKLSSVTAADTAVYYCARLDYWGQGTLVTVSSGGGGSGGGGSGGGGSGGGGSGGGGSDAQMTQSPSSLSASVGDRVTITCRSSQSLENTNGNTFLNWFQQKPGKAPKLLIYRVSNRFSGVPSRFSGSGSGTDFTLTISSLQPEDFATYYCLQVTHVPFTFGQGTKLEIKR
light: B6 light
On to B8, for which the “Max. IL-12p70, dendritic cells” value in test [5] worked out at 60 pg/mL.

B9: hu107-1 (antibody, V domains shown)
VH: EVQLVQSGAEVKKPGSSVKVSCKASDYTFNDYWVSWVRQAPGQGLEWIGEIYPNSGATNFNGKFRGRATLTVDNSASTAYMELSSLRSEDTAVYYCTREYTRDWFAYWGQGTLVTVSS
VL: DVVLTQSPLSLPVTLGQPASISCRSSQSLLDSDGNTYLYWFQQRPGQSPRRLIYLVSNLGSGVPDRFSGSGSGTDFTLKISRVEAEDVGVYYCMQPTHAPYTFGQGTKLEIK
notes: as for B1
With B9, in test [1], the affinity, expressed as Kd, was 0.16 nM; the koff worked out at 6.5e-05 s⁻¹; the kon came out at 410000 M⁻¹ s⁻¹. Besides, in test [2], the Kd stood at 5.2 nM, the koff came out at 0.0013 s⁻¹ and the kon amounted to 240000 M⁻¹ s⁻¹.

B10: TABBY1.1-mIgG1 (antibody, V domains shown)
VH: EVQLVESGGDLVKPGGSQKLSCAASGFTFSSYGMSWVRQTPDRRLEWVAAIISGGSYTYYPDSVKGRFTISRDNAKNTLYLQMNSLKSEDTAMYYCARHGGYDGNYDYYAMDYWGQGTSVTVSS
VL: DVLMTQTPLSLPVSLGDQASISCRSSQSIVDSDGITYLEWYLQKPGQSPKLLIYKVSNRFSGVPDRFSGSGSGTDFTLRISRVEAEDLGLYYCFQVSHVPWTFGGGTKLEIK
notes: mouse IgG1
For the molecule B10, binding in test [4] was characterised by a dissociation constant (Kd) of 2 nM.

B11: V6-8 (bispecific antibody)
chain 1: EVQLQESGPGLVKPSETLSLTCTVSGYSITSNYYWNWIRQPPGKGLEWMGYIRYDGSNNYNPSLKNRVTISRDTSKNQFSLKLSSVTAADTAVYYCARLDYWGQGTTVTVSS
chain 2: DAQMTQSPSSLSASVGDRVTITCRSSQSLENTNGNTFLNWFQQKPGKAPKLLIYRVSNRFSGVPSRFSGSGSGTDFTLTISSLQPEDFATYYCLQVTHVPFTFGQGTKLEIK
chain 3: EVQLLESGGGLVQPGGSLRLSCAASGFTFSSYAMSWVRQAPGKGLEWVSAISGGGGRTYYADSVKGRFTISRDNSKNTLYLQMNSLRAEDTAVYYCAREEMAFRAYRFDIWGQGTLVTVSS
chain 4: not shown
In test [6], B11 yielded a Kd of 14 nM, a koff of 0.014 s⁻¹ and an on-rate constant (kon) of 970000 M⁻¹ s⁻¹. In addition, in test [7], the Kd was determined as 11 nM, the koff is 0.0015 s⁻¹ and the kon worked out at 130000 M⁻¹ s⁻¹. In test [8], the dissociation constant Kd was 11 nM, the koff was found to be 0.013 s⁻¹ and the association rate constant (kon) was 1.3e+06 M⁻¹ s⁻¹.

B12: Hu106mPSMA-3 (bispecific antibody)
chain: EVQLVQSGAEVKKPGSSVKVSCKASGYTFTSYYIYWVRQAPGQGLEWIGNIWPGNGGTFYGEKFMGRATFTADTSTSTAYMELSSLRSEDTAVYYCARRPDYSGDDYFDYWGQGTLVTVSSGGGGSGGGGSGGGGSGGGGSGGGGSGGGGSNVMLTQPHSVSESPGKTVTISCKLNSGNIGSYYVHWYQQRPGSSPTTMIYRDDKRPDGVPDRFSGSIDSSSNSASLTISGLKTEDEADYYCHSYDSTITPVFGGGTKLTVLGQVPRDSGCKPCICTVPEVSSVFIFPPKPKDVLMITLTPKVTCVVVDISKDDPEVQFSWFVDDVEVHTAQTQPREEQFNSTFRSVSELPIMHQDWLNGKEFKCRVNSAAFPAPIEKTISKTKGRPKAPQVYTIPPPKEQMAKDKVSLTCMITDFFPEDITVEWQWNGQPAENYKNTQPIMDTDGSYFVYSKLNVQKSNWEAGNTFTCSVLHEGLHNHHTEKSLSHSPGKGGGGSGGGSGGGSGGGGSEVKLVESEGGLVQPGSSMKLSCTASGFTFSDYYMAWVRQVPEKGLEWVANINYDGTTTYYLDSLKSRFIISRDNSKNILYLQMSSLKSEDTATYYCARVLDGYYGYFDYWGQGTTLSVSSGGGGSGGGGSGGGGSGGGGSGGGGSGGGGSQIVLTQSPAIMSASPGEKVTISCSASSSVSYMYWYQQKPGSSPKPWIYRTYNLASGVPARFSGSGSGTSYSLTISSMEAEDAATYYCQQSHTYPPTFGGGTKLEIKR
notes: contains T252M
Consider B12, for which the midpoint of the response in test [3], the EC50, lay at 1.1 nM.

B13: Hu106mPSMA-4 (bispecific antibody)
chain: B12 chain with N341A
notes: contains T252M and N297A
With B13, the EC50 in test [3] is 1 nM.

B14: TABBY5-mIgG2b (antibody, V domains shown)
VH: EVQLQQSGAELVRPGASVKLSCTASGFNIKDYYMHWVKQRPEQGLEWIGRIDPEDGDTEYVPKFQGKATMTADTSSNTAYLQLSSLTSEDTAVYYCTPYSNYVYWYFDVWGTGTTVTVSS
VL: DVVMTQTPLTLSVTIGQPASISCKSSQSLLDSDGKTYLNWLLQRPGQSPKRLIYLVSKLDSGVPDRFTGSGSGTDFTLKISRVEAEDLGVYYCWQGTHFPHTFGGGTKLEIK
notes: mouse IgG2b
Turning to B14, in test [4], the Kd stood at 0.3 nM.

B15: TABBY6-mIgG1 (antibody, V domains shown)
VH: B14 VH with V61A, S85T
VL: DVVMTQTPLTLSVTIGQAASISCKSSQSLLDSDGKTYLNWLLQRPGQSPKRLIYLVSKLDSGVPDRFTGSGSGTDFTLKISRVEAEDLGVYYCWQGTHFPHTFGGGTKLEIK
notes: mouse IgG1
B15: in test [4], the Kd came out at 1.9 nM.

One may read the Kd as the equilibrium constant for the complex coming apart. For orientation: koff means a measure of how fast the partners let go of each other. Higher therefore signals fast dissociation. The kon is the rate constant with which the complex forms. The low end stands for slow association, the high end for fast association. Usually EC50 stands for the concentration giving half of the maximal effect. Read a low EC50 as an effect from little substance.
